The target in this assay is mouse-anti-β-COMP sera (polyclonal antiserum specific for the human COMP derived sequence AQEDβSDH). As to the kind of experiment: competitive ELISA: free peptide competes with biotinylated β-COMP on streptavidin plates for the mouse anti-β-COMP serum.

For two molecules, IC50 results are on record in US20040259172A1.

Numbered stars: 1 amine (or outer) side, 2 acyl side, 3 side chain; on linkers, the order of the positions; unused ones are H or OH. Square brackets hold non-standard residues; d marks the D form. Ends that are not written are not given here. βAsp = O=C(O)[C@H](CC(=O)[*:2])N[*:1]

A word on the IC50: it is the concentration at which inhibition is half-maximal. Read a high IC50 as weaker potency. With AQE[βAsp]SDH, the IC50 came to 0.038 µg/mL. For the molecule AQEDSDH [α-COMP peptide (non-isomerised (α) form of the COMP peptide)], the IC50 is 0.435 µg/mL.
